Measurements published in article PMC3285539 (Nature, 2012).

T1: Rpn2 (S. cerevisiae, UniProt P32565 1-945)
T1 sequence: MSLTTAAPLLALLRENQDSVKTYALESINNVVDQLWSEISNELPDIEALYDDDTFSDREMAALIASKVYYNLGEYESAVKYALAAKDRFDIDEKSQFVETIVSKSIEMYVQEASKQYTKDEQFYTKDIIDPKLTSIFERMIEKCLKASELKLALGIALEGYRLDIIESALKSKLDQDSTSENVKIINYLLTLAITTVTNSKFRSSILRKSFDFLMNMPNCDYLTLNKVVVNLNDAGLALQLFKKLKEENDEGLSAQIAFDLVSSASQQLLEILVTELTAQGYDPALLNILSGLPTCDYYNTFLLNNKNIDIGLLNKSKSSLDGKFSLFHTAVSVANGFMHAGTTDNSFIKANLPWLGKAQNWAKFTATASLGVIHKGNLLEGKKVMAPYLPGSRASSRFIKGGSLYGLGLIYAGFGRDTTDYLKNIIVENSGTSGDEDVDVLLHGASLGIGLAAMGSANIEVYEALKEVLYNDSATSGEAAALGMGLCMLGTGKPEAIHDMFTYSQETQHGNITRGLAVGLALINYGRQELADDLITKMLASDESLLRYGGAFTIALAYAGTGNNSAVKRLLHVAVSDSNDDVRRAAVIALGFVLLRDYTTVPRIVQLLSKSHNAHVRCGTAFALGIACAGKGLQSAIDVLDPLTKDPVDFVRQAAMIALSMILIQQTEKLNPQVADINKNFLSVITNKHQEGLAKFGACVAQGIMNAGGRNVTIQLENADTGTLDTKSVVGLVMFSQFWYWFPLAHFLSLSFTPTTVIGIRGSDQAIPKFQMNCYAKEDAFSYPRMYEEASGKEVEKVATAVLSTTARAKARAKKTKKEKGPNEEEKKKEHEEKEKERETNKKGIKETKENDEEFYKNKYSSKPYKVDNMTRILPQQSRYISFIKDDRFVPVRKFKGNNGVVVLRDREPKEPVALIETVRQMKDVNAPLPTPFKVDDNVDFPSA

T2: Rpn7 (S. cerevisiae, UniProt Q06103 1-429)
T2 sequence: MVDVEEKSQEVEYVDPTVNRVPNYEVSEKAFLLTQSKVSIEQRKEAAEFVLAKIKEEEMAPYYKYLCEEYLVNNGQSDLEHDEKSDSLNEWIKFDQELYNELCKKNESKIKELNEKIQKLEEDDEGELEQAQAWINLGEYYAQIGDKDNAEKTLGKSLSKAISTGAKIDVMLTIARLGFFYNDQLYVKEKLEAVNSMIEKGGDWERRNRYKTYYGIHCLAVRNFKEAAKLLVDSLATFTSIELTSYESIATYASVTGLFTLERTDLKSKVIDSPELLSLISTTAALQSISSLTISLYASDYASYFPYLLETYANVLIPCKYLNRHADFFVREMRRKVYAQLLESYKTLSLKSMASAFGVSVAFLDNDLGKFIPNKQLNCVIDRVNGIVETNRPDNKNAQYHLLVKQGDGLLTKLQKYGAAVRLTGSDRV

T3: Rpt3 (S. cerevisiae, UniProt P33298 1-428)
T3 sequence: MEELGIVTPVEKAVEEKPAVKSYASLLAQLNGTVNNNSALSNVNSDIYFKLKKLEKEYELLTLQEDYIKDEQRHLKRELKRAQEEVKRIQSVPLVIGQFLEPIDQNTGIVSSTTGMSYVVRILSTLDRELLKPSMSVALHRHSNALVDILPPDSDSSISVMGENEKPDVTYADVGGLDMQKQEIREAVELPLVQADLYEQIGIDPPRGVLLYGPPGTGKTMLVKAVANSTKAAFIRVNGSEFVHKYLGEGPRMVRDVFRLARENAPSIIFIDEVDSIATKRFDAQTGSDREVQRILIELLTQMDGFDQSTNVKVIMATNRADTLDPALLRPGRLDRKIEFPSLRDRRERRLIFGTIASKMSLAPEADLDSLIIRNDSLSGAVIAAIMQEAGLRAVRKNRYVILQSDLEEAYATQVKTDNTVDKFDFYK

T4: Rpt5 (S. cerevisiae, UniProt P33297 1-434)
T4 sequence: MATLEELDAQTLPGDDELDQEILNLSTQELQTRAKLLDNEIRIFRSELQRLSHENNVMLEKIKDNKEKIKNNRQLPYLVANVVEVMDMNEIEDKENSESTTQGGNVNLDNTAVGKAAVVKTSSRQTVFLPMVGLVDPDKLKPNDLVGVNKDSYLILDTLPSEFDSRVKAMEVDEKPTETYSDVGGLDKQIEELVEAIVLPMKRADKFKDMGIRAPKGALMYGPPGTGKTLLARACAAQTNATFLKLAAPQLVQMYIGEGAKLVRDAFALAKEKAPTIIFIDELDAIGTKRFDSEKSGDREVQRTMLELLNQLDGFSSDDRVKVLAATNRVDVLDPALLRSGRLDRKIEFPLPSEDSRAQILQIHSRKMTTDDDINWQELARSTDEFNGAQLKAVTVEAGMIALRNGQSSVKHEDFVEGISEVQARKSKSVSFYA

T5: Rpn9 (recombinant lid) (S. cerevisiae, UniProt Q04062 1-393)
T5 sequence: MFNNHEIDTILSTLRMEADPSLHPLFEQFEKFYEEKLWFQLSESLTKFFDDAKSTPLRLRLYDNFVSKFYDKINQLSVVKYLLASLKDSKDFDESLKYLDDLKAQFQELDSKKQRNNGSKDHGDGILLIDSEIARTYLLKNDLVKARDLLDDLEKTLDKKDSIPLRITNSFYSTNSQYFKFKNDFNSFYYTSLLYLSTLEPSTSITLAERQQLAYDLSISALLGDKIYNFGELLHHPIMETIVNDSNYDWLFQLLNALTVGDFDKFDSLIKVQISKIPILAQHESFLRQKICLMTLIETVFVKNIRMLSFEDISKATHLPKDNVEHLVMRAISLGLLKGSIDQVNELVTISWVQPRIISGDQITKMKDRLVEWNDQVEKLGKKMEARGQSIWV

T6: Rpn5 (recombinant lid) (S. cerevisiae, UniProt Q12250 1-445)
T6 sequence: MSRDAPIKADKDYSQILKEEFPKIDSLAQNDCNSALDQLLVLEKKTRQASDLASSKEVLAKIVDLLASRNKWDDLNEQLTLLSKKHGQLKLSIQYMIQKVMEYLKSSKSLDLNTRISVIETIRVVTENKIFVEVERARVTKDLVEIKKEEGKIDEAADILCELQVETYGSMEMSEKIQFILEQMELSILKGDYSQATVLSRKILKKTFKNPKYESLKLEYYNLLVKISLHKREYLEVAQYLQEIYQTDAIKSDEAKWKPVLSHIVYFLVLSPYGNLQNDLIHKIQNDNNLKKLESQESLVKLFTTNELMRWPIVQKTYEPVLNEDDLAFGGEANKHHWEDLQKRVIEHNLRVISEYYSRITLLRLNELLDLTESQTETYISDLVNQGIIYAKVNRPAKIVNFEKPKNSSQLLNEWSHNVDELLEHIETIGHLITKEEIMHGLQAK

B1: Rpt6 (natural protein)
chain: MTAAVTSSNIVLETHESGIKPYFEQKIQETELKIRSKTENVRRLEAQRNALNDKVRFIKDELRLLQEPGSYVGEVIKIVSDKKVLVKVQPEGKYIVDVAKDINVKDLKASQRVCLRSDSYMLHKVLENKADPLVSLMMVEKVPDSTYDMVGGLTKQIKEIKEVIELPVKHPELFESLGIAQPKGVILYGPPGTGKTLLARAVAHHTDCKFIRVSGAELVQKYIGEGSRMVRELFVMAREHAPSIIFMDEIDSIGSTRVEGSGGGDSEVQRTMLELLNQLDGFETSKNIKIIMATNRLDILDPALLRPGRIDRKIEFPPPSVAARAEILRIHSRKMNLTRGINLRKVAEKMNGCSGADVKGVCTEAGMYALRERRIHVTQEDFELAVGKVMNKNQETAISVAKLFK
B2: Rpn8 (natural protein)
chain: MSLQHEKVTIAPLVLLSALDHYERTQTKENKRCVGVILGDANSSTIRVTNSFALPFEEDEKNSDVWFLDHNYIENMNEMCKKINAKEKLIGWYHSGPKLRASDLKINELFKKYTQNNPLLLIVDVKQQGVGLPTDAYVAIEQVKDDGTSTEKTFLHLPCTIEAEEAEEIGVEHLLRDVRDQAAGGLSIRLTNQLKSLKGLQSKLKDVVEYLDKVINKELPINHTILGKLQDVFNLLPNLGTPDDDEIDVENHDRINISNNLQKALTVKTNDELMVIYISNLVRSIIAFDDLIENKIQNKKIQEQRVKDKQSKVSDDSESESGDKEATAPLIQRKNKKN
B3: 20S core subunit α6 (natural protein)
chain: MFRNNYDGDTVTFSPTGRLFQVEYALEAIKQGSVTVGLRSNTHAVLVALKRNADELSSYQKKIIKCDEHMGLSLAGLAPDARVLSNYLRQQCNYSSLVFNRKLAVERAGHLLCDKAQKNTQSYGGRPYGVGLLIIGYDKSGAHLLEFQPSGNVTELYGTAIGARSQGAKTYLERTLDTFIKIDGNPDELIKAGVEAISQSLRDESLTVDNLSIAIVGKDTPFTIYDGEAVAKYI
B4: Rpn8 (recombinant lid) (natural protein)
chain: B2 chain
B5: Rpn11-6xHis (recombinant lid) (enzyme)
chain: MERLQRLMMNSKVGSADTGRDDTKETVYISSIALLKMLKHGRAGVPMEVMGLMLGEFVDDYTVNVVDVFAMPQSGTGVSVEAVDDVFQAKMMDMLKQTGRDQMVVGWYHSHPGFGCWLSSVDVNTQKSFEQLNSRAVAVVVDPIQSVKGKVVIDAFRLIDTGALINNLEPRQTTSNTGLLNKANIQALIHGLNRHYYSLNIDYHKTAKETKMLMNLHKEQWQSGLKMYDYEEKEESNLAATKSMVKIAEQYSKRIEEEKELTEEELKTRYVGRQDPKKHLSETADETLENNIVSVLTAGVNSVAIK

Columns and labels:
Rpn2 = biological target: T1, Rpn2; assay: cryo-EM structure
Rpn7 = biological target: T2, Rpn7; assay: cryo-EM structure
Rpt3 = biological target: T3, Rpt3; assay: cryo-EM structure
Rpt6 = biological target: B1; assay: cryo-EM structure
Rpt5 = biological target: T4, Rpt5; assay: cryo-EM structure
Rpn9 (recombinant lid) = biological target: T5, Rpn9 (recombinant lid); assay: negative-stain electron microscopy, 3D reconstruction
Rpn5 (recombinant lid) = biological target: T6, Rpn5 (recombinant lid); assay: as above
Rpn8 (recombinant lid) = biological target: B4; assay: as above

B1: binds (Rpn2); binds (Rpn7).

B2: binds (Rpt3); binds (Rpt6).

B3: binds (Rpt5).

B4: binds (Rpn9 (recombinant lid)).

B5: binds (Rpn5 (recombinant lid)); binds (Rpn8 (recombinant lid)).
